Test results from patent publication US20240245796A1 (PROFOUNDBIO US, published 2024).

Experiments:
[1] = molecular target: T1, human FOLR3 extracellular domain linked to His tag (human, UniProt P41439 23-245, limits assumed); test: BLI, Ag 7.82 nM; * = below range of quantification
T1 construct: extracellular domain; Antigen in solution in BLI; also called Hu-FRg; not shown: His tag

[2] = molecular target: T2, human FOLR2 extracellular domain linked to His tag (human, UniProt P14207 17-230, limits assumed); test: BLI, Ag 7.82 nM; * = below range of quantification
T2 construct: extracellular domain; Antigen in solution in BLI; also called Hu-FRb; not shown: His tag
T2 sequence (P14207 17-230 limits assumed): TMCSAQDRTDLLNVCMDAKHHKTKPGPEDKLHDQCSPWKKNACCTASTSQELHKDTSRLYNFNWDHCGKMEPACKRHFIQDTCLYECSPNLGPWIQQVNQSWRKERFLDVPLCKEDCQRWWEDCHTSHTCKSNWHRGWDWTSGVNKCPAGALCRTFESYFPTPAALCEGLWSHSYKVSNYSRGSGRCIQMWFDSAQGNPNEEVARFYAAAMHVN

[3] = molecular target: T3, human FOLR1 extracellular domain linked to His tag (human, UniProt P15328 25-233, limits assumed); test: BLI, Ag 125 nM over Ab on anti-hIgG Fc tip
T3 construct: extracellular domain; It may be the same product as m13; also called Hu-FRα; Hu-Ag; not shown: His tag
T3 sequence (P15328 25-233 limits assumed): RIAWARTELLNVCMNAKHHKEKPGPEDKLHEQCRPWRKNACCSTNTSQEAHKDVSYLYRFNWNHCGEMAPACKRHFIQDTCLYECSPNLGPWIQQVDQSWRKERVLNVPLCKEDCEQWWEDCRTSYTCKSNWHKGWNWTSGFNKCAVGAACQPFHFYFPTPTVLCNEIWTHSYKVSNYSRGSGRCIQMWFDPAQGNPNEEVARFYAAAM

[4] = molecular target: T4, cynomolgus monkey FOLR1 extracellular domain linked to His tag (cynomolgus monkey, UniProt A0A2K5U044 25-233); test: BLI, Ag 125 nM over Ab on anti-hIgG Fc tip
T4 construct: extracellular domain; Antigen in solution in BLI; It may be the same product as m14; also called Cyno-Ag; not shown: His tag
T4 sequence (A0A2K5U044 entry or part of it): as the sequence (P15328 25-233 limits assumed) above, with I2T, W4R, R37K, A146P, H171Y counted along it

[5] = molecular target: T3, human FOLR1 extracellular domain linked …; test: BLI, global 1:1 fit (500 nM row)
[6] = molecular target: T2, human FOLR2 extracellular domain linked …; test: BLI, global 1:1 fit (500 nM row)
[7] = molecular target: T5, mouse FOLR1 extracellular domain linked to His tag (mouse, UniProt P35846 25-232, limits assumed); test: BLI, global 1:1 fit (125 nM row); only the 500 nM response quantifiable
T5 construct: extracellular domain; Antigen in solution in BLI; also called Mouse-Ag; not shown: His tag
T5 sequence (P35846 25-232 limits assumed): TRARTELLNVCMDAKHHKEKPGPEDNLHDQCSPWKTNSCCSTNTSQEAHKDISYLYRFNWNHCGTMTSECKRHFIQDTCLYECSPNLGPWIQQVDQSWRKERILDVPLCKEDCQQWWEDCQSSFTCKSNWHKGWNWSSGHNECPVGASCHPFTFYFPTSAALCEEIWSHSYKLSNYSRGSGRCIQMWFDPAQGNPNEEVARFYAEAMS

[8] = molecular target: T1, human FOLR3 extracellular domain linked …; test: BLI, global 1:1 fit (62.5 nM row); all responses below quantification
[9] = molecular target: T5, mouse FOLR1 extracellular domain linked …; test: BLI, global 1:1 fit (62.5 nM row); only the 500 nM response quantifiable
[10] = molecular target: T1, human FOLR3 extracellular domain linked …; test: BLI, Ag 31.3 nM; * = below range of quantification
[11] = molecular target: T2, human FOLR2 extracellular domain linked …; test: BLI, Ag 31.3 nM; * = below range of quantification
[12] = molecular target: T5, mouse FOLR1 extracellular domain linked …; test: BLI, global 1:1 fit (500 nM row); only the 500 nM response quantifiable
[13] = molecular target: T1, human FOLR3 extracellular domain linked …; test: BLI, global 1:1 fit (15.6 nM row); all responses below quantification
[14] = molecular target: T3, human FOLR1 extracellular domain linked …; test: BLI, Ag 500 nM over Ab on anti-hIgG Fc tip
[15] = molecular target: T2, human FOLR2 extracellular domain linked …; test: BLI, Ag 500 nM over Ab on anti-hIgG Fc tip
[16] = molecular target: T1, human FOLR3 extracellular domain linked …; test: BLI, global 1:1 fit (125 nM row); all responses below quantification
[17] = molecular target: T5, mouse FOLR1 extracellular domain linked …; test: BLI, global 1:1 fit (250 nM row); only the 500 nM response quantifiable
[18] = molecular target: T3, human FOLR1 extracellular domain linked …; test: BLI, Ag 62.5 nM over Ab on anti-hIgG Fc tip
[19] = molecular target: T4, cynomolgus monkey FOLR1 extracellular …; test: BLI, Ag 62.5 nM over Ab on anti-hIgG Fc tip
[20] = molecular target: T3, human FOLR1 extracellular domain linked …; test: BLI, Ag 500 nM over Ab on anti-hIgG Fc tip; remark: listed apart in the source
[21] = molecular target: T5, mouse FOLR1 extracellular domain linked …; test: BLI, Ag 500 nM over Ab on anti-hIgG Fc tip
[22] = molecular target: T4, cynomolgus monkey FOLR1 extracellular …; test: BLI, Ag 500 nM over Ab on anti-hIgG Fc tip
[23] = molecular target: T6, rat FOLR1 extracellular domain linked to His tag (rat); test: BLI, Ag 7.82 nM; * = below range of quantification
T6 construct: extracellular domain; Antigen in solution in BLI; also called Rat-Ag

T1 sequence (P41439 23-245 limits assumed): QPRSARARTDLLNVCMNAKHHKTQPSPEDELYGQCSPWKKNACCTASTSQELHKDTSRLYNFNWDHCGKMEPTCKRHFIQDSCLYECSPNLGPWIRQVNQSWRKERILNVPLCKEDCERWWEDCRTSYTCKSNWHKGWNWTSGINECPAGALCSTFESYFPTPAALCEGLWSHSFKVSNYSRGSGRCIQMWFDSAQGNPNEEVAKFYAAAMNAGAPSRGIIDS

Binder | Response [1] | Response [2] | Response [3] | Response [4] | koff [5] [s⁻¹] | kon [5] [M⁻¹ s⁻¹] | Kd [6] [nM] | koff [6] [s⁻¹] | kon [6] [M⁻¹ s⁻¹] | Kd [7] [nM] | koff [7] [s⁻¹] | kon [7] [M⁻¹ s⁻¹] | koff [8] [s⁻¹] | Kd [9] [nM] | koff [9] [s⁻¹] | kon [9] [M⁻¹ s⁻¹] | Response [10] | Response [11] | koff [12] [s⁻¹] | kon [12] [M⁻¹ s⁻¹] | further results
F131 (antibody, V domains shown, also called clone F131; F131 mAb) VH: EVQLLESGGGVVQPGRSLRLSCAASGFTFSSYGMHWVRQAPGKGLEWVAVISYDGSNKYYADSVKGRFTISRANSKNTLYLQMNSLRAEDTAVYYCARPRAYYGAYGSSFDYWGQGTQVTVSS VL: EIVMTQSPSSVSASVGDRVAITCRASQGISSWLAWYQQKPGKAPKLLIYAASSLQSGVPSRFSGSGSGTDFTLTISSLQPEDFATYYCQQSYSTPLTFGGGTKVDIK | 0.00103 | 0.0011 | 0.146 | 0.177 | 0.0012 | 226000 | 142 | 0.0784 | 552000 | 2960 | 0.301 | 102000 | 0.217 | 2960 | 0.301 | 102000 | 0.0028 | 0.0068 | 0.301 | 102000 | kon [8]: 1660 M⁻¹ s⁻¹; koff [13]: 0.217 s⁻¹; kon [13]: 1660 M⁻¹ s⁻¹; Response [14]: 0.192; Response [15]: 0.037; koff [16]: 0.217 s⁻¹; kon [16]: 1660 M⁻¹ s⁻¹; Kd [17]: 2960 nM; koff [17]: 0.301 s⁻¹; kon [17]: 102000 M⁻¹ s⁻¹; Response [18]: 0.12; Response [19]: 0.14; Response [20]: 0.181; Response [21]: 0.0167; Response [22]: 0.219; Response [23]: -0.00563
F131-LD038 (antibody, V domains shown, drug-linker LD038 (PB038, maleimide-PEG unit-Val-Cit-PAB-exatecan) on cysteines freed by TCEP reduction; positions not given, Antibody-drug conjugate of F131 (IgG1) with LD038; also called anti-huFOLR-1 conjugate F131-LD038; F131-038) VH: EVQLLESGGGVVQPGRSLRLSCAASGFTFSSYGMHWVRQAPGKGLEWVAVISYDGSNKYYADSVKGRFTISRANSKNTLYLQMNSLRAEDTAVYYCARPRAYYGAYGSSFDYWGQGTQVTVSS VL: EIVMTQSPSSVSASVGDRVAITCRASQGISSWLAWYQQKPGKAPKLLIYAASSLQSGVPSRFSGSGSGTDFTLTISSLQPEDFATYYCQQSYSTPLTFGGGTKVDIK | 0.0004 | 0.002 | 0.158 | 0.152 | 0.00121 | 252000 | 84.4 | 0.0813 | 963000 | 2870 | 0.266 | 92600 | 0.233 | 2870 | 0.266 | 92600 | 0.0079 | 0.0076 | 0.266 | 92600 | Kd [5]: 4.79 nM; Kd [12]: 2870 nM; koff [13]: 0.233 s⁻¹; Response [14]: 0.222; Response [15]: 0.0427; koff [16]: 0.233 s⁻¹; Kd [17]: 2870 nM; koff [17]: 0.266 s⁻¹; kon [17]: 92600 M⁻¹ s⁻¹; Response [18]: 0.129; Response [19]: 0.121; Response [20]: 0.205; Response [21]: 0.0125; Response [22]: 0.186; Response [23]: -0.00438
